# Measured values from US20210253718A1 (MODMAB THERAPEUTICS, published 2021).
# T1: FZD3 cysteine-rich domain (CRD), MYC-tagged and GPI-anchored on CHO cells (human, UniProt Q9NPG1 24-150, GPI anchor)
# T1 construct: domain: cysteine-rich domain (CRD); also called FZD3 CRD; CHO-myc-FZDGPI; not shown: MYC tag and GPI anchor signal
# T1 sequence (looked up): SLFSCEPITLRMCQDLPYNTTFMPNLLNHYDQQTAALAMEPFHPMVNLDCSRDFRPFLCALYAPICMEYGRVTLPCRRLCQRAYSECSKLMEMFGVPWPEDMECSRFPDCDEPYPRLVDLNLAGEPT
# T2: FZD5 cysteine-rich domain (CRD), MYC-tagged and GPI-anchored on CHO cells (human, UniProt Q13467 29-156, GPI anchor)
# T2 construct: also called FZD5 CRD; CHO-myc-FZDGPI; not shown: MYC tag and GPI anchor signal
# T2 sequence: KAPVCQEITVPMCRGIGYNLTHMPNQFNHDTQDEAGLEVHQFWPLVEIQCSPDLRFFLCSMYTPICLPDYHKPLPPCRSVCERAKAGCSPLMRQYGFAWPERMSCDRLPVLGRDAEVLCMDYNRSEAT
# T3: FZD8 cysteine-rich domain (CRD), MYC-tagged and GPI-anchored on CHO cells (human, UniProt Q498S8 31-155 (rat entry), GPI anchor)
# T3 construct: also called FZD8 CRD; CHO-myc-FZDGPI; not shown: MYC tag and GPI anchor signal
# T3 sequence: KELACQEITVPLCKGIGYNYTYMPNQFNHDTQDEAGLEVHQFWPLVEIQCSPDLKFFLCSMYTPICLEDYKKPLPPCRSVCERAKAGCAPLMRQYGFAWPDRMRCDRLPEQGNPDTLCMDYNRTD
# T4: FZD9 cysteine-rich domain (CRD), MYC-tagged and GPI-anchored on CHO cells (human, UniProt O00144 35-161, GPI anchor)
# T4 construct: also called FZD9 CRD; CHO-myc-FZDGPI; not shown: MYC tag and GPI anchor signal
# T4 sequence: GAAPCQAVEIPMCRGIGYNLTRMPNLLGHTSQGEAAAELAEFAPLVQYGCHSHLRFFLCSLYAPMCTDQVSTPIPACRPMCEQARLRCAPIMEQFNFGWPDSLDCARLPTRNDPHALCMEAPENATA
# T5: FZD6 cysteine-rich domain (CRD), MYC-tagged and GPI-anchored on CHO cells (human, UniProt O60353 20-146, GPI anchor)
# T5 construct: also called FZD6 CRD; CHO-myc-FZDGPI; not shown: MYC tag and GPI anchor signal
# T5 sequence: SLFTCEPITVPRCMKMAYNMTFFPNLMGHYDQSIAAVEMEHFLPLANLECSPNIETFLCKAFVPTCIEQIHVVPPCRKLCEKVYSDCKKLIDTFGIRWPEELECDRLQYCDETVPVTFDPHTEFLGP
# T6: FZD4 cysteine-rich domain (CRD), MYC-tagged and GPI-anchored on CHO cells (human, UniProt Q9ULV1 42-167, GPI anchor)
# T6 construct: also called FZD4 CRD; CHO-myc-FZDGPI; not shown: MYC tag and GPI anchor signal
# T6 sequence: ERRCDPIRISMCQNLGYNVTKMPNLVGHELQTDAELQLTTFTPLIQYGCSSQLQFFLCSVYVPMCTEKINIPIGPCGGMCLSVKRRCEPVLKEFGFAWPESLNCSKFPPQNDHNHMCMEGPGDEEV
# T7: FZD10 cysteine-rich domain (CRD), MYC-tagged and GPI-anchored on CHO cells (human, UniProt Q9ULW2 30-156, GPI anchor)
# T7 construct: also called FZD10 CRD; CHO-myc-FZDGPI; not shown: MYC tag and GPI anchor signal
# T7 sequence: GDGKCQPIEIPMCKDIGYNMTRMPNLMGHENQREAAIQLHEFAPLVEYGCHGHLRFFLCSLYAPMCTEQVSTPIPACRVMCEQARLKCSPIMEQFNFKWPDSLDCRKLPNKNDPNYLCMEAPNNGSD
# Key:
# [1] = target: T1, FZD3 cysteine-rich domain (CRD), …; experiment: flow cytometry, CHO-CRD cells;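 note: flow cytometry of Fab binding to CHO cells overexpressing a Frizzled CRD, with binding defined as median fluorescence over twice that of CHO cells lacking any Frizzled CRD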
# Description: (§1) Binding was measured via flow cytometry analysis of CHO cells overexpressing CRD of FZD1, FZD2, FZD3, FZD4, FZD5, FZD6, FZD7, FZD8, FZD9 or FZD10. Median fluorescence values are shown.
# [2] = target: T2, FZD5 cysteine-rich domain (CRD), …; experiment: flow cytometry, CHO-CRD cells;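 note: flow cytometry of Fab binding to CHO cells overexpressing a Frizzled CRD, with binding defined as median fluorescence over twice that of CHO cells lacking any Frizzled CRD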
# Description: as §1
# [3] = target: T3, FZD8 cysteine-rich domain (CRD), …; experiment: flow cytometry, CHO-CRD cells;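 note: flow cytometry of Fab binding to CHO cells overexpressing a Frizzled CRD, with binding defined as median fluorescence over twice that of CHO cells lacking any Frizzled CRD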
# Description: as §1
# [4] = target: T4, FZD9 cysteine-rich domain (CRD), …; experiment: flow cytometry, CHO-CRD cells;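 note: flow cytometry of Fab binding to CHO cells overexpressing a Frizzled CRD, with binding defined as median fluorescence over twice that of CHO cells lacking any Frizzled CRD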
# Description: as §1
# [5] = target: T5, FZD6 cysteine-rich domain (CRD), …; experiment: flow cytometry, CHO-CRD cells
# Description: as §1
# [6] = target: T6, FZD4 cysteine-rich domain (CRD), …; experiment: flow cytometry, CHO-CRD cells
# Description: as §1
# [7] = target: T7, FZD10 cysteine-rich domain (CRD), …; experiment: flow cytometry, CHO-CRD cells
# Description: as §1
# [8] = target: T1, FZD3 cysteine-rich domain (CRD), …; experiment: immunofluorescence, CHO-CRD cells
# [9] = target: T4, FZD9 cysteine-rich domain (CRD), …; experiment: immunofluorescence, CHO-CRD cells
# [10] = target: T5, FZD6 cysteine-rich domain (CRD), …; experiment: immunofluorescence, CHO-CRD cells
# [11] = target: T6, FZD4 cysteine-rich domain (CRD), …; experiment: immunofluorescence, CHO-CRD cells
# [12] = target: T7, FZD10 cysteine-rich domain (CRD), …; experiment: immunofluorescence, CHO-CRD cells
# [13] = target: FZD7 cysteine-rich domain (CRD), MYC-tagged and GPI-anchored on CHO cells (human, UniProt O75084 45-169); experiment: flow cytometry, CHO-CRD cells
# Description: as §1
# [14] = target: FZD1 cysteine-rich domain (CRD), MYC-tagged and GPI-anchored on CHO cells (human); experiment: flow cytometry, CHO-CRD cells
# Description: as §1
# [15] = target: FZD2 cysteine-rich domain (CRD), MYC-tagged and GPI-anchored on CHO cells (human, UniProt Q14332 35-161); experiment: flow cytometry, CHO-CRD cells
# Description: as §1
Binder,median fluorescence [1],median fluorescence [2],median fluorescence [3],median fluorescence [4],median fluorescence [5],median fluorescence [6],median fluorescence [7],binding result [8],binding result [9],binding result [10],binding result [11],binding result [12],median fluorescence [13],median fluorescence [14],median fluorescence [15]
"Fab-2900 (Fab, V domains shown, Fab; also called Fv-2900) VH: EVQLVESGGGLVQPGGSLRLSCAASGFNLSSYYIHWVRQAPGKGLEWVASISSSSSSTSYADSVKGRFTISADTSKNTAYLQMNSLRAEDTAVYYCARGALDYWGQGTLVTVSS VL: DIQMTQSPSSLSASVGDRVTITCRASQSVSSAVAWYQQKPGKAPKLLIYSASSLYSGVPSRFSGSRSGTDFTLTISSLQPEDFATYYCQQWYSGSSLFTFGQGTKVEIK",4.26,38.2,23.3,3.01,3.37,5.62,3.25,no binding,no binding,no binding,no binding,no binding,–,–,–
"Fab-2903 (Fab, V domains shown, Fab; also called Fv-2903) VH: EVQLVESGGGLVQPGGSLRLSCAASGFNLSYYYIHWVRQAPGKGLEWVASIYPYSSYTSYADSVKGRFTISADTSKNTAYLQMNSLRAEDTAVYYCARGAIDYWGQGTLVTVSS V domain: DIQMTQSPSSLSASVGDRVTITCRASQSVSSAVAWYQQKPGKAPKLLIYSASSLYSGVPSRFSGSRSGTDFTLTISSLQPEDFATYYCQQWGGGSSLFTFG",4.18,34.9,13.7,3.11,3.52,5.52,3.05,no binding,no binding,no binding,no binding,no binding,8.58,8.66,–
"Fab-2932 (Fab, V domains shown, Fab; also called Fv-2932) VH: EVQLVESGGGLVQPGGSLRLSCAASGFNISYSYMHWVRQAPGKGLEWVASIYSSYSSTSYADSVKGRFTISADTSKNTAYLQMNSLRAEDTAVYYCARGALDYWGQGTLVTVSS VL: DIQMTQSPSSLSASVGDRVTITCRASQSVSSAVAWYQQKPGKAPKLLIYSASSLYSGVPSRFSGSRSGTDFTLTISSLQPEDFATYYCQQWYGSFALITFGQGTKVEIK",3.85,29.4,28.9,3.62,3.11,4.26,3.82,no binding,no binding,no binding,no binding,no binding,34.3,16.6,–
"Fab-2915 (Fab, V domains shown, Fab; also called Fv-2915) VH: EVQLVESGGGLVQPGGSLRLSCAASGFNIYYYSMHWVRQAPGKGLEWVASIYSSYGYTSYADSVKGRFTISADTSKNTAYLQMNSLRAEDTAVYYCARGYHYYPYYSGLDYWGQGTLVTVSS VL: DIQMTQSPSSLSASVGDRVTITCRASQSVSSAVAWYQQKPGKAPKLLIYSASSLYSGVPSRFSGSRSGTDFTLTISSLQPEDFATYYCQQAYYHSLITFGQGTKVEIK",5.05,–,–,3.92,3.37,5.99,3.92,no binding,no binding,no binding,no binding,no binding,40.7,36.9,22.1
"Fab-2901 (Fab, V domains shown, Fab; also called Fv-2901) VH: EVQLVESGGGLVQPGGSLRLSCAASGFNISYSYMHWVRQAPGKGLEWVASIYSYSSYTYYADSVKGRFTISADTSKNTAYLQMNSLRAEDTAVYYCARSWYYWSPSSGMDYWGQGTLVTVSS VL: DIQMTQSPSSLSASVGDRVTITCRASQSVSSAVAWYQQKPGKAPKLLIYSASSLYSGVPSRFSGSRSGTDFTLTISSLQPEDFATYYCQQGGFLITFGQGTKVEIK",4.1,32.8,10.9,3.25,3.62,5.09,3.85,no binding,no binding,no binding,no binding,no binding,47,17.1,–
"Fab-2931 (Fab, V domains shown, Fab; also called Fv-2931) VH: EVQLVESGGGLVQPGGSLRLSCAASGFNLSYSSMHWVRQAPGKGLEWVAYISPYSGSTYYADSVKGRFTISADTSKNTAYLQMNSLRAEDTAVYYCARGSYWYVGGGWWVSGHGGMDYWGQGTLVTVSS VL: DIQMTQSPSSLSASVGDRVTITCRASQSVSSAVAWYQQKPGKAPKLLIYSASSLYSGVPSRFSGSRSGTDFTLTISSLQPEDFATYYCQQSSYSLITFGQGTKVEIK",3.49,28.1,–,2.76,2.89,3.65,2.59,no binding,no binding,no binding,no binding,no binding,–,–,–
"Fab-2905 (Fab, V domains shown, Fab; also called Fv-2905) VH: EVQLVESGGGLVQPGGSLRLSCAASGFNLSYYYMHWVRQAPGKGLEWVASIYSSYSYTSYADSVKGRFTISADTSKNTAYLQMNSLRAEDTAVYYCARSGYALDYWGQGTLVTVSS VL: DIQMTQSPSSLSASVGDRVTITCRASQSVSSAVAWYQQKPGKAPKLLIYSASSLYSGVPSRFSGSRSGTDFTLTISSLQPEDFATYYCQQSSWYYGYPFTFGQGTKVEIK",4.1,24.8,–,3.25,3.22,4.57,3.31,no binding,no binding,no binding,no binding,no binding,–,–,–
